From the DeepSol protein solubility set

Assay: soluble on expression in E. coli; label from the status in PepcDB or PDB records

| Sequence | soluble on expression in E. coli |
| --- | --- |
| MGHHHHHHSHLKKNEQNFKLAGVKKDIEKLYEAVPQLSNVFKIEDKIGEGTFSSVYLATAQLQVGPEEKIALKHLIPTSHPIRIAAELQCLTVAGGQDNVMGVKYCFRKNDHVVIAMPYLEHESFLDILNSLSFQEVREYMLNLFKALKRIHQFGIVHRDVKPSNFLYNRRLKKYALVDFGLAQGTHDTKIELLKFVQSEAQQERCSQNKSHIITGNKIPLSGPVPKELDQQSTTKASVKRPYTNAQIQIKQGKDGKEGSVGLSVQRSVFGERNFNIHSSISHESPAVKLMKQSKTVDVLSRKLATKKKAISTKVMNSAVMRKTASSCPASLTCDCYATDKVCSICLSRRQQVAPRAGTPGFRAPEVLTKCPNQTTAIDMWSAGVIFLSLLSGRYPFYKASDDLTALAQIMTIRGSRETIQAAKTFGKSILCSKEVPAQDLRKLCERLRGMDSSTPKLTSDIQGHASHQPAISEKTDHKASCLVQTPPGQYSGNSFKKGDSNSCEHCFDEYNTNLEGWNEVPDEAYDLLDKLLDLNPASRITAEEALLHPFFKDMSL | not soluble |
| MGHHHHHHSHLRHKEPGSGSGGGVYWVDSQQKRYVPVKGDHVIGIVTAKSGDIFKVDVGGSEPASLSYLSFEGATKRNRPNVQAISSRL | not soluble |
| MGHHHHHHSHMAALASSLIRQKREVREPGGSRPVSAQRRVCPRGTKSLCQKQLLILLSKVRLCGGRPARPDRGPEPQLKGIVTKLFCRQGFYLQANPDGSIQGTPEDTSSFTHFNLIPVGLRVVTIQSAKLGHYMAMNAEGLLYSSPHFTAECRFKECVFENYYVLYASALYRQRRSGRAWYLGLDKEGQVMKGNRVKKTKAAAHFLPKLLEVAMYQEPSLHSVPEASPSSPPAP | soluble |
| MGHHHHHHSHMADDIDIEAMLEAPYKKDENKLSSANGHEERSKKRKKSKSRSRSHERKRSKSKERKRSRDRERKKSKSRERKRSRSKERRRSRSRSRDRRFRGRYRSPYSGPKFNSAIRGKIGLPHSIKLSRRRSRSKSPFRKDKSPVREPIDNLTPEERDARTVFCMQLAARIRPRDLEEFFSTVGKVRDVRMISDRNSRRSKGIAYVEFVDVSSVPLAIGLTGQRVLGVPIIVQASQAEKNRAAAMANNLQKGSAGPMRLYVGSLHFNITEDMLRGIFEPFGRIESIQLMMDSETGRSKGYGFITFSDSECAKKALEQLNGFELAGRPMKVGHVTERTDASSASSFLDSDELERTGIDLGTTGRLQLMARLAEGTGLQIPPAAQQALQMSGSLAFGAVAEFSFVIDLQTRLSQQTEASALAAAASVQPLATQCFQLSNMFNPQTEEEVGWDTEIKDDVIEECNKHGGVIHIYVDKNSAQGNVYVKCPSIAAAIAAVNALHGRWFAGKMITAAYVPLPTYHNLFPDSMTATQLLVPSRR | soluble |
| MGHHHHHHSHMAESHPWSGRPSSSPRRSSTFANYAWKHTIKPNRILIRNARPLVINFATDRLPIIKPVDQIILEDAGTVGSALNLPSESICTRPGLLLFGHYNNDVPVTPLVDFKPDEPLQVVLTAHKTIVVPPGEFVMIIVCVNFEKIKSLDLIIHEMSTSNIPLPPTCGQTFKNFNTATPSLEIYGDVIECNDDQKTCVFTAVFPGLHRRCSLHGPLNFMGFVNSVNITGTILRVYYSGVSEAAPDSILVKFKTSSAVAFSKNPCQGHVPSHDDTLIPLVYTGPTLRLLPLETISIPFNTSFVAQNPDLKAIIYDNNLKDIRISATMWTGEQTPILAHNLTAAVKLIHSGTVFARAAFFSTKENKKACTLKLCPSTILLPGGELSLDTSTLPNCFK | not soluble |
| MGHHHHHHSHMAGPVKDREAFQRLNFLYQAAHCVLAQDPENQALARFYCYTERTIAKRLVLRRDPSVKRTLCRGCSSLLVPGLTCTQRQRRCRGQRWTVQTCLTCQRSQRFLNDPGHLLWGDRPEAQLGSQADSKPLQPLPNTAHSISDRLPEEKMQTQGSSNQ | not soluble |
| MGHHHHHHSHMAPKKAKKRAGGANSNVFSMFEQTQIQEFKEAFTIMDQNRDGFIDKNDLRDTFAALGRVNVKNEEIDEMIKEAPGPINFTVFLTMFGEKLKGADPEETILNAFKVFDPEGKGVLKADYVREMLTTQAERFSKEEVDQMFAAFPPDVTGNLDYKNLVHIITHGEEKD | soluble |
| MGHHHHHHSHMASRWQNMGTSVRRRSLQHQEQLEDSKELQPVVSHQETSVGALGSLCRQFQRRLPLRAVNLNLRAGPSWKRLETPEPGQQGLQAAARSAKSALGAVSQRIQESCQSGTKWLVETQVKARRRKRGAQKGSGSPTHSLSQKSTRLSGAAPAHSAADPWEKEHHRLSVRMGSHAHPLRRSRREAAFRSPYSSTEPLCSPSESDSDLEPVGAGIQHLQKLSQELDEAIMAEERKQALSDRQGFILKDVYASP | not soluble |
| MGHHHHHHSHMATSRYEPVAEIGVGAYGTVYKARDPHSGHFVALKSVRVPNGGGGGGGLPISTVREVALLRRLEAFEHPNVVRLMDVCATSRTDREIKVTLVFEHVDQDLRTYLDKAPPPGLPAETIKDLMRQFLRGLDFLHANCIVHRDLKPENILVTSGGTVKLADFGLARIYSYQMALTPVVVTLWYRAPEVLLQSTYATPVDMWSVGCIFAEMFRRKPLFCGNSEADQLGKIFDLIGLPPEDDWPRDVSLPRGAFPPRGPRPVQSVVPEMEESGAQLLLEMLTFNPHKRISAFRALQHSYLHKDEGNPE | not soluble |
| MGHHHHHHSHMAVVRATSADVDLMARLLRAEAEGEGKQGMLLVGNVGINRLRANCSDFKGLRTIRQMIYQPHAFEAVTHGYFYQRARDSERALARGSINGERRWPAKFSLWYFRPQGDCPAQWYNQPFVARFKSHCFYQPTAETCENVYNTF | not soluble |
| MGHHHHHHSHMAVWIQAQQLQGEALHQMQALYGQHFPIEVRHYLSQWIESQAWDSVDLDNPQENIKATQLLEGLVQELQKKAEHQVGEDGFLLKIKLGHYATQLQNTYDRCPMELVRCIRHILYNEQRLVREANNGSSP | not soluble |
| MGHHHHHHSHMDPDTFTFNFNNDPLVLRRRQTYLCYEVERLDNGWMVLMDQHMGFLCNEAKNLLCGFYGRHADWRFLDLVPSLQLDPAQIYRVTWFISWSPCFSWGCAGEVRAFLQENTHVRLPIFAARIYDYDPLYKEALQMLRDAGAQVSIMTYDEFEYCWDTFVYRQGCPFQPWDGLEEHSQALSGRLRAILQNQGN | not soluble |
| MGHHHHHHSHMDRWSAGTLENSILNAYLHTIRGSQHFLYIENQFFISCSDGRTVLNKVGDEIVDRILKAHKQGWCYRVYVLLPLLPGFEGDISTGGGNSIQAILHFTYRTLCRGEYSILHRLKAAMGTAWRDYISICGLRTHGE | soluble |
| MGHHHHHHSHMELKQSLSTHLEAEKPLRRYGAVEETAWKTERLGRNQLDIISMAETTMMPEEIELEMAKIQRLREVLVRRESELRFMMDDIQLCKDIMDLKQELQNLVAIPEKEKTKLQKQREDELIQKIHKLVQKRDFLVDDAEVERLREQEEDKEMADFLRIKLKPLDKVTKSPASSRAEKKAEPPPSKPTVAKTGLALIKDCCGATQCNIM | soluble |
| MGHHHHHHSHMETLSNASGTFAIRLLKILCQDNPSHNVFCSPVSISSALAMVLLGAKGNTATQMAQALSLNTEEDIHRAFQSLLTEVNKAGTQYLLRTANRLFGEKTCQFLSTFKESCLQFYHAELKELSFIRAAEESRKHINTWVSKKTEGKIEELLPGSSIDAETRLVLVNAIYFKGKWNEPFDETYTREMPFKINQEEQRPVQMMYQEATFKLAHVGEVRAQLLELPYARKELSLLVLLPDDGVELSTVEKSLTFEKLTAWTKPDCMKSTEVEVLLPKFKLQEDYDMESVLRHLGIVDAFQQGKADLSAMSAERDLCLSKFVHKSFVEVNEEGTEAAAASSCFVVAECCMESGPRFCADHPFLFFIRHNRANSILFCGRFSSP | not soluble |
| MGHHHHHHSHMGKQKKTRKYATMKRMLSLRDQRLKEKDRLKPKKKEKKDPSALKEREVPQHPSCLFFQYNTQLGPPYHILVDTNFINFSIKAKLDLVQSMMDCLYAKCIPCITDCVMAEIEKLGQKYRVALRIAKDPRFERLPCTHKGTYADDCLVQRVTQHKCYIVATVDRDLKRRIRKIPGVPIMYISNHRYNIERMPDDYGAPRF | not soluble |
| MGHHHHHHSHMGKWHVGGRRGSPRQWGATARGRDLEAVRRGGCGSVGRRRQRRRRRRRRMRRMRRMWATQGLAVRVALSVLPGSRALRPGDCEVCISYLGRFYQDLKDRDVTFSPATIENELIKFCREARGKENRLCYYIGATDDAATKIINEVSKPLAHHIPVEKICEKLKKKDSQICELKYDKQIDLSTVDLKKLRVKELKKILDDWGETCKGCAEKSDYIRKINELMPKYAPKAASAPTDL | not soluble |
| MGHHHHHHSHMIHIVQAKDKGQTARATKFLALDKCLPHRDFLQILEIEHDPSAPDYLEYDIEWLTILRATDDLINVTGRLWNMPESNGLHARWDYSATEEGMKEVLEKLNHDLKVPCNFSVTAACYDPSKPQTQMQLIHRINPQTTEFCAQLGIIDINVRLQKSKEEHHVCGEYEEQDDVESNDSGEDQSEYNTDTSALSSINPDEIMLDEEEDEDSIVSAHSGMNTPSVEPSDQASEFSASFSDVRILPGSMIVSSDDTVDSTIDREGKPGGTVESGNGEDLTKVPLKRLSDEHEPEQRKKIKRRNQAIYAAVDDDDDDAA | not soluble |
| MGHHHHHHSHMIQYIPQRPPIVMISTLVSAEKNVTETELEIPAHGLFVKDGVLHEPGLIENVAQTAAAGVGYACTLTSQPVPVGFIGAVKNLEIDYLPKVGDVLETRVEVLEEIFDMTLIKGESFVKGKRVLTCEMKIVLKK | not soluble |
| MGHHHHHHSHMISSNIREARTVILPRLMLEITSNGTLTVASHTPIFQKLSLLDLPSLTAHLKTKLSGSMFKGFLFATLCETEDHVTTLDMHPHVFEKRLVLYNPRNTCNKELCALISMVENLMDCDPKLPLSIYMRGKRLFQKNPGKDSCFLFKGLSTLISTHFAVYHPNFTVNDELLLPPLLAYKMHSTIEGIDEVSKGLLKAIYLDSYRMDNNIDDFQNPAGTFTLLCLPTIFTKHLTVPNVLILIKRAGLMYEAIDNIIL | not soluble |
| MGHHHHHHSHMKMEHQNKRSPLHAAAEAGHVDICHMLVQAGANIDTCSEDQRTPLMEAAENNHLEAVKYLIKAGALVDPKDAEGSTCLHLAAKKGHYEVVQYLLSNGQMDVNCQDDGGWTPMIWATEYKHVDLVKLLLSKGSDINIRDNEENICLHWAAFSGCVDIAEILLAAKCDLHAVNIHGDSPLHIAARENRYDCVVLFLSRDSDVTLKNKEGETPLQCASLNSQV | not soluble |
| MGHHHHHHSHMLALATSIHQSQLDRERILSLEQRVVELQQTLAQKDQALGKLEQSLRLMEEASFDGTFLWKITNVTRRCHESACGRTVSLFSPAFYTAKYGYKLCLRLYLNGDGTGKRTHLSLFIVIMRGEYDALLPWPFRNKVTFMLLDQNNREHAIDAFRPDLSSASFQRPQSETNVASGCPLFFPLSKLQSPKHAYVKDDTMFLKCIVETST | not soluble |
| MGHHHHHHSHMLENRDYTLIIDKSGSMATPDQKGGRNRWVTAQESTLALASKCEQFDPDGITLYVFSGRFKRYENVTSAKVNQIFQENDPSGTTDLAAVLKHATDDYFQRKGAGKTKPNGETILVVTDGEPDDRKAVMRVIIEASRRMDKDEELAISFIQVGSDAQATRFLKVLDDELQGAGAKFDICDTVTMEDMEDLSLSEVLLNAITD | soluble |
| MGHHHHHHSHMLWECKQLGAHSPSTLLTTLMFFNTKYFLLKTVDQHMKLAFSKVLRQTKKNPSNPKDKSTSIRYLKALGIHQTGQKVTDDMYAEQTENPENPLRCPIKLYDFYLFKCPQSVKGRNDTFYLTPEPVVAPNSPIWYSVQPISREQMGQMLTRILVIREIQEAIAVANASTMH | not soluble |
